These results are taken from US20080081025A1, “Uv Absorbing Chromophores Covalently Bonded to Hyperbranched Polymers” (DSM IP ASSETS B.V., priority 2004, published 2008).

SMILES strings stand for the structures.

The nature of data set [1]: In vitro SPF on PMMA plates using the SPF-290S Analyzer System. The note with it: sunscreen containing 5% UV filter; 1.4 mg sunscreen per cm^2 on PMMA plates; triplicate.
Data set [2] is described as follows: Solubility in Tegosoft TN (C12-C15 alkylbenzoate). The data set is classed as physicochemical. The method, then:
(§1) Cesium carbonate (16 g, 50 mmol) and potassium iodate (50 mg) were added to a solution of 4-(1,3-benzoxazol-2-yl)-phenol I (8.9 g, 42 mmol) (prepared according to Passerini, J. Chem. Soc. 1954, 2256-2257) in NMP (N-methylpyrolidon) (100 mL) and the mixture stirred under Argon at 80° C. for 20 min. A solution of mesylated poly(glycerol-b-propylene oxide) (7.48 g, 4.4 mmol, 35 mmol MsO) in NMP (60 mL) was added dropwise and the reaction mixture stirred at 80° C. for 12 h. Water and ethyl acetate were added (200 mL each), an orange precipitate was separated by filtration, and the aqueous layer was extracted with ethyl acetate (2×100 mL). […] The amount of attached chromophore was determined using ^1H NMR, comparing the integration of the signals of the phenol's aromatic protons at 6.99 and 8.12 ppm to trimethylolpropane CH3 at 0.87 ppm, to give an average of about 8 chromophores/polymer.
Hybrane200 D2000 (WO 99/16810) was supplied from DSM Hybrane (Geleen, The Netherlands) with a Mn of about 2000 g/mol as determined by GPC. […] The amount of attached chromophore was determined using ^1H NMR, comparing the integration of the signals of the aromatic protons at 6.59 and 7.85 ppm to the CH3 of the aliphatic chain at 0.86 ppm, to give an average of about 8 chromophores/polymer.

Data set [3] in a line: Photostability according to G. Berset et al., applying the prepared sunscreen instead of a liquid film. The note with it: Brij O/W sunscreen containing 5% (w/w) chromophore; Berset method. The format is physicochemical. The method, then: The photostability of the conjugates according to the present invention may be measured according to G. Berset et al. International Journal of Cosmetic Science 1996, 18(3), 167-177.
The hyperbranched chromophore II (5.0 g, corresponding to 5% (w/w) UV-filter/sunscreen) was dissolved in Tegosoft TN at 80° C. and added to a mixture of Brij 72 (INCI: Steareth-2) (2.0 g), Brij 721 (INCI: Steareth-21) (2.0 g), Lanette O (cetearyl alcohol) (2.0 g), Estol GMM 3650 (glyceryl monomyristate) (2.0 g), BHT (butylhydroxytoluene) (0.05 g) and Phenonip (phenoxyethanol and methyl-, ethyl-, propyl-, butylparaben) (0.8 g). The mixture was shortly heated to 80° C. in order to melt solid emulsifiers. To the still warm mixture (70-80° C.) a preheated solution (˜80° C.) of glycerin (4.0 g) and EDTA BD (0.1 g) in water (62.95 g) and subsequently 10% aqueous KOH (0.1 g) as well as Sepigel 305 (polyacrylamide and C13-C14 isoparaffin and Laureth-7) (1.0 g) were added slowly under continuous stirring. The resulting emulsion was stirred until a temperature of about 40° C. was reached, homogenized with 24,000 rpm using a ULTRA-TURRAX®, and finally stirred for an additional hour. […] Each in vitro SPF was determined in triplicate to give for chromophore II and Parsol® MCX an average of 6.6 (II) and 6.8, respectively.

The nature of data set [4]: UV absorption (specific extinction E1/1) of the polymeric filter. The data set is classed as physicochemical. The note with it: in CHCl3 at 309 nm. The method, then:
as §1
Potassium tert. butylate (2.3 g) were added to a solution of 4-Dicyanomethylene-2,6-dimethyl-1,4-dihydropyridine-N-ethane-2-ol (4.3 g, 20 mmol) in NMP (50 mL) and the mixture stirred under Argon at rt. for 10 min. […] This product was chromatographed in Ethylacetate/Ethanol=19:1 and the fractions were analyzed by GPC. […]
Hybrane200 D2000 (WO 99/16810) was supplied from DSM Hybrane (Geleen, The Netherlands) with a Mn of about 2000 g/mol as determined by GPC. […]

Turning to `CCCCC(CC)COC(=O)C=Cc1ccc(OC)cc1` (centres unmarked) [Parsol® MCX, 2-ethylhexyl 4-methoxycinnamate, reference compound], the “in vitro SPF (average)” value in data set [1] was 6.8.

Take `CCC(COCC(COCC(C)Oc1ccc(-c2nc3ccccc3o2)cc1)OCC(C)OCC(C)Oc1ccc(-c2nc3ccccc3o2)cc1)(COCC(COCC(C)OCC(C)Oc1ccc(-c2nc3ccccc3o2)cc1)OCC(C)Oc1ccc(-c2nc3ccccc3o2)cc1)COCC(COCC(COCC(C)Oc1ccc(-c2nc3ccccc3o2)cc1)OCC(C)Oc1ccc(-c2nc3ccccc3o2)cc1)OCC(COCC(C)Oc1ccc(-c2nc3ccccc3o2)cc1)OCC(C)Oc1ccc(-c2nc3ccccc3o2)cc1` (centres unmarked) [chromophore II]: the “solubility in Tegosoft TN” value in data set [2] is reported as “at least 24 % (w/w)”. Besides, the “photostability: chromophore recovered” value in data set [3] was found to be 96%. Besides, in data set [1], the “in vitro SPF (average)” value came to 6.6. In addition, the E1/1/-value in data set [4] amounted to 840.
